Measurements reported in the Immune Epitope Database (IEDB).

What was measured:
HLA-B*18:01 = experiment: IEDB peptide-MHC binding, purified MHC/competitive/radioactivity; filed as Kd, often an IC50 or EC50 that approximates it; ≥ and ≤ were set here for values at or beyond the usual limits of such assays; details: source organism: SARS coronavirus Tor2
HLA-B*40:01 = experiment: as above; details: source organism: SARS coronavirus Tor2
HLA-B*40:02 = experiment: as above; details: source organism: SARS coronavirus Tor2
HLA-B*44:02 = experiment: as above; details: source organism: SARS coronavirus Tor2
HLA-B*44:03 = experiment: as above; details: source organism: SARS coronavirus Tor2
HLA-B*45:01 = experiment: as above; details: source organism: SARS coronavirus Tor2
HLA-A*30:01 = experiment: as above; details: source organism: Vaccinia virus WR
HLA-A*32:01 = experiment: as above; details: source organism: Vaccinia virus WR
HLA-B*08:01 = experiment: as above; details: source organism: Vaccinia virus WR
HLA-B*15:01 = experiment: as above; details: source organism: Vaccinia virus WR
HLA-B*15:03 = experiment: as above
HLA-B*27:05 = experiment: IEDB peptide-MHC binding, purified MHC/direct/fluorescence; filed as Kd, often an IC50 or EC50 that approximates it; ≥ and ≤ were set here for values at or beyond the usual limits of such assays; details: source organism: West Nile virus
HLA-B*48:01 = experiment: as above; details: source organism: West Nile virus
[1] = source organism: Vaccinia virus WR

Row | Sequence | Kd (HLA-B*18:01) [nM] | Kd (HLA-B*40:01) [nM] | Kd (HLA-B*40:02) [nM] | Kd (HLA-B*44:02) [nM] | Kd (HLA-B*44:03) [nM] | Kd (HLA-B*45:01) [nM] | Kd (HLA-A*30:01) [nM] | Kd (HLA-A*32:01) [nM] | Kd (HLA-B*08:01) [nM] | Kd (HLA-B*15:01) [nM] | Kd (HLA-B*15:03; [1]) [nM] | also measured
1 | TERLKLFAA | 301 | 19200 | 24 | ≥ 65800 | ≥ 41200 | 4.73 |  |  |  |  |  | 
2 | TMKERRPIL |  |  |  |  |  |  | 4730 | 2210 | 1.83 | 808 | 397 | 
3 | VELVAEMDG | ≥ 28300 | ≥ 76200 | ≥ 77300 | 10600 | ≥ 24500 | ≥ 29400 |  |  |  |  |  | 
4 | VEYPIIGDEL | 15200 | 5.04 | 500 | 4810 | 282 | 2230 |  |  |  |  |  | 
5 | VLFEVFVVF |  |  |  |  |  |  | ≥ 24400 | 7.8 | 5110 | 2.85 | 4.85 | 
6 | VQTIVFIWF |  |  |  |  |  |  |  |  |  |  |  | Kd (HLA-B*15:03; source organism: Vaccinia virus): 306 nM
7 | WEIQQVVDA | 4920 | 1030 | 54.3 | ≥ 30300 | 9040 | 135 |  |  |  |  |  | 
8 | WSIYLSLHY |  |  |  |  |  |  | 17000 | ≥ 29000 | 2720 | 48.2 | 8.85 | 
9 | YQSLSPPPF |  |  |  |  |  |  | 0.503 | 4740 | ≥ 33400 | 5050 | 0.0611 | 
10 | YRLRGEERK |  |  |  |  |  |  |  |  |  |  |  | Kd (HLA-B*27:05): 883 nM; Kd (HLA-B*48:01): ≥ 20000 nM
